Assay results as given in paper PMC5034536, “Molecular insights into substrate recognition and catalytic mechanism of the chaperone and FKBP peptidyl-prolyl isomerase SlyD” (BMC Biology, 2016).
Where two headings read alike, the source gives them in different places.

Key:
[1] = biological target: chimeric TtSlyD construct in which the IF domain is replaced by the flap loop from human FKBP12 (TtSlyDΔIF) (Thermus thermophilus | human) (UniProt P62942)
[2] = biological target: chimeric TtSlyD construct in which the IF domain is replaced by the flap loop from human FKBP12 (TtSlyDΔIF) (Thermus thermophilus | human) (UniProt P62942); remark: listed apart in the source
[3] = biological target: full-length SlyD from Thermus thermophilus (TtSlyDFL) (Thermus thermophilus)
[4] = biological target: TtSlyDFL Y63F (Thermus thermophilus)
[5] = biological target: full-length SlyD from Thermus thermophilus (TtSlyDFL) (Thermus thermophilus); remark: listed apart in the source
[6] = biological target: chimeric TtSlyD construct in which the IF domain is replaced by the flap loop from human FKBP12 (TtSlyDΔIF) (Thermus thermophilus | human) (UniProt P62942); remark: listed apart in the source
[7] = biological target: full-length SlyD from Thermus thermophilus (TtSlyDFL) (Thermus thermophilus); remark: listed apart in the source
[8] = biological target: full-length SlyD from Thermus thermophilus (TtSlyDFL) (Thermus thermophilus); remark: listed apart in the source
[9] = biological target: chimeric TtSlyD construct in which the IF domain is replaced by the flap loop from human FKBP12 (TtSlyDΔIF) (Thermus thermophilus | human) (UniProt P62942); remark: listed apart in the source
[10] = biological target: chimeric TtSlyD construct in which the IF domain is replaced by the flap loop from human FKBP12 (TtSlyDΔIF) (Thermus thermophilus | human) (UniProt P62942); remark: listed apart in the source

Substance	Kd [1] [µM]	dH [1] [kcal/mol]	stoichiometry N [1]	KD1 (site 1, IF domain) [3] [µM]	KD2 (site 2, FKBP domain) [3] [µM]	N1 (site 1, IF domain) [3]	N2 (site 2, FKBP domain) [3]	dH1 (site 1, IF domain) [3] [kcal/mol]	dH2 (site 2, FKBP domain) [3] [kcal/mol]	KD1 (site 1, IF domain) [7] [µM]	KD2 (site 2, FKBP domain) [7] [µM]	N1 (site 1, IF domain) [7]	N2 (site 2, FKBP domain) [7]	dH1 (site 1, IF domain) [7] [kcal/mol]	dH2 (site 2, FKBP domain) [7] [kcal/mol]	other results
S2 peptide	14.4	-10	0.91	0.15	3.16	0.98	1.05	-14.8	-8.9	–	–	–	–	–	–	Kd [2]: 12.2 µM; dH [2]: -5.9 kcal/mol; stoichiometry N [2]: 0.88; KD1 (site 1, IF domain) [4]: 0.03 µM; KD2 (site 2, FKBP domain) [4]: 1.58 µM; N1 (site 1, IF domain) [4]: 0.81; N2 (site 2, FKBP domain) [4]: 0.78; dH1 (site 1, IF domain) [4]: -11.3 kcal/mol; dH2 (site 2, FKBP domain) [4]: -6 kcal/mol
S2-W23A peptide (from UniProt P0A7V0 20-34)	17.1	-8.1	0.77	–	–	–	–	–	–	0.855	18.8	0.76	0.91	-15.8	-2.3	–
SlpA linker P5T peptide	–	–	–	–	–	–	–	–	–	–	–	–	–	–	–	Kd [7]: 130 µM; dH [7]: -0.9 kcal/mol; stoichiometry N [7]: 1.76

Further lines, with some results ahead:

Kd [1] [µM]	dH [1] [kcal/mol]	stoichiometry N [1]	KD1 (site 1, IF domain) [3] [µM]	KD2 (site 2, FKBP domain) [3] [µM]	N1 (site 1, IF domain) [3]	N2 (site 2, FKBP domain) [3]	dH1 (site 1, IF domain) [3] [kcal/mol]	dH2 (site 2, FKBP domain) [3] [kcal/mol]	KD1 (site 1, IF domain) [7] [µM]	KD2 (site 2, FKBP domain) [7] [µM]	N1 (site 1, IF domain) [7]	N2 (site 2, FKBP domain) [7]	dH1 (site 1, IF domain) [7] [kcal/mol]	dH2 (site 2, FKBP domain) [7] [kcal/mol]	Substance	other results
12.1	-11.7	0.91	–	–	–	–	–	–	0.129	7.04	0.92	1.02	-16.6	-8.5	S2-P25A peptide (from UniProt P0A7V0 20-34)	kcat/KM of peptidyl-prolyl cis/trans isomerization of the S2-P25A peptide, NMR lineshape analysis, 25 °C, 0.2 μM enzyme, peptide 10–1000 μM [5]: 368 µM⁻¹ s⁻¹; kcat/KM of peptidyl-prolyl cis/trans isomerization of the S2-P25A peptide, NMR lineshape analysis, 25 °C, 0.2 μM enzyme [6]: 248 µM⁻¹ s⁻¹; KM of peptidyl-prolyl cis/trans isomerization of the S2-P25A peptide (cis form), Michaelis-Menten fit of NMR lineshape data, 25 °C [8]: 2000 µM; kcat/KM of peptidyl-prolyl cis/trans isomerization of the S2-P25A peptide, NMR lineshape analysis, 25 °C, 0.2 μM enzyme [9]: 2.84e+08 M⁻¹ s⁻¹
–	–	–	1.45	44	1.13	1.09	-14.1	-5.9	–	–	–	–	–	–	S2-P25A/P29E peptide (from UniProt P0A7V0 20-34)	Kd [10]: 29 µM; dH [10]: -6.3 kcal/mol; stoichiometry N [10]: 0.84
–	–	–	0.234	8.33	0.93	1.18	-16.8	-2.3	–	–	–	–	–	–	S2-P25N/P29N peptide (from UniProt P0A7V0 20-34)	–
13.8	-10.8	0.69	–	–	–	–	–	–	0.513	5.68	0.88	1.02	-15.8	-2.7	S2-P29E peptide (from UniProt P0A7V0 20-34)	–
